# Numbering of substitutions follows the chain as printed.
# B1: 128 (protein)
# chain: LDNGLARTPTMGWLHWERFMCNLDCQEEPDSCISEKLFMEMAELMVSEGWKDAGYEYLCIDDCWMAPQRDSEGRLQADPQRFPHGIRQLANYVHSKGLKLGIYADVGNKTCAGFPGSFGYYDIDAQTFADWGVDLLKFDGCYCDSLENLADGYKHMSLALNRTGRSIVYSCEWPLYMWPFQKPNYTEIRQYCNHWRNFADIDDSWKSIKSILDWTSFNQERIVDVAGPGGWNDPDMLVIGNFGLSWNQQVTQMALWAIMAAPLFMSNDLRHISPQAKALLQDKDVIAINQDPLGKQGYQLRQGDNFEVWERPLSGLAWAVAMINRQEIGGPRSYTIAVASLGKGVACNPACFITQLLPVKRKLGFYEWTSRLRSHINPTGTVLLQLENTTQMSKDLLL
# modifications: Synthetic Polypeptide sequence of Variant No. 128 of mature Human GLA
# B2: 130 (protein)
# chain: B1 chain with T390M, M392P
# modifications: Synthetic Polypeptide sequence of Variant No. 130 of mature Human GLA
# B3: 131 (protein)
# chain: B1 chain with T390M, M392S
# modifications: Synthetic Polypeptide sequence of Variant No. 131 of mature Human GLA
# B4: 129 (protein)
# chain: B1 chain with T390M, M392G
# modifications: Synthetic Polypeptide sequence of Variant No. 129 of mature Human GLA
# B5: 139 (protein)
# chain: B1 chain with Q385I, T390M
# modifications: Synthetic Polypeptide sequence of Variant No. 139 of mature Human GLA
# B6: 132 (protein)
# chain: B1 chain with M39Y, T390M
# modifications: Synthetic Polypeptide sequence of Variant No. 132 of mature Human GLA
# B7: 138 (protein)
# chain: B1 chain with Q385H, T390M
# modifications: Synthetic Polypeptide sequence of Variant No. 138 of mature Human GLA
# B8: 135 (protein)
# chain: B1 chain with Q190S, T369D, T390M
# modifications: Synthetic Polypeptide sequence of Variant No. 135 of mature Human GLA
# B9: 141 (protein)
# chain: B1 chain with T390M, Q391G
# modifications: Synthetic Polypeptide sequence of Variant No. 141 of mature Human GLA
# B10: 133 (protein)
# chain: B1 chain with N388R, T390M
# modifications: Synthetic Polypeptide sequence of Variant No. 133 of mature Human GLA
# B11: 134 (protein)
# chain: B1 chain with N91Q, T390M
# modifications: Synthetic Polypeptide sequence of Variant No. 134 of mature Human GLA
# B12: 137 (protein)
# chain: B1 chain with Q302A, T390M
# modifications: Synthetic Polypeptide sequence of Variant No. 13 of mature Human GLA
# B13: 36 (protein)
# chain: B1 chain with A350G, T390M
# modifications: Synthetic Polypeptide sequence of Variant No. 36 of mature Human GLA
# B14: 140 (protein)
# chain: B1 chain with Q385L, T390M
# modifications: Synthetic Polypeptide sequence of Variant No. 140 of mature Human GLA
# B15: 142 (protein)
# chain: B1 chain with Q80A, T390M
# modifications: Synthetic Polypeptide sequence of Variant No. 142 of mature Human GLA
# B16: 136 (protein)
# chain: B1 chain with Q249A, T390M
# modifications: Synthetic Polypeptide sequence of Variant No. 136 of mature Human GLA
# Legend:
# Format in all cases: biochemical
# [1] = HTP-analysis of yeast culture supernatants, no challenge (MUGal hydrolysis); conditions: activity of the variant/activity of WT GLA (SEQ ID NO: 5), yeast supernatant
# Method in brief: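 GLA variants were expressed in INVSc1 yeast grown in SD-Ura broth with glucose at 30° C., and culture supernatants were collected after 66-84 h. Supernatant was mixed with McIlvaine buffer pH 4.8 and MUGal (2 mM stock) in 50 mM citrate, 200 mM KCl, pH 4.6, incubated at 37° C. for 30-180 minutes, then quenched with sodium carbonate.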
# [2] = HTP-analysis of supernatants pretreated with base (MUGal hydrolysis); conditions: challenge at pH 7.1; activity of the variant/activity of WT GLA (SEQ ID NO: 5); yeast supernatant
# Method in brief: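 GLA variants were secreted by transformed INVSc1 yeast grown 66-84 h at 30° C. Supernatants were exposed to neutral-to-basic buffers (pH 7.0-9.7) at 37° C for 1-18 h, then assayed with MUGal in acidic citrate/McIlvaine buffer, with fluorescence read after quenching.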
# [3] = HTP-analysis of supernatants pretreated with acid (MUGal hydrolysis); conditions: challenge at pH 4.2; activity of the variant/activity of WT GLA (SEQ ID NO: 5); yeast supernatant
# Method in brief: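 MUGal hydrolysis was tracked by fluorescence (Ex 355 nm, Em 448 nm) after a 30-180 min reaction at 37° C. in pH 4.8 McIlvaine/citrate buffer, stopped with 1 M sodium carbonate. Beforehand, yeast (INVSc1) culture supernatants carrying GLA variants were held 1-3 h at 37° C. in acidic McIlvaine buffer, pH 3.3-4.3.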
Molecule,Relative Activity of GLA Variants After No Challenge (NC) [1],Relative Activity of GLA Variants After Challenge at pH 7.1 [2],Relative Activity of GLA Variants After Challenge at pH 4.2 [3]
B1,+ (+ = 0.5 to 1.5 relative activity over WT GLA (SEQ ID NO: 5)),+ (+ = 0.5 to 1.5 relative activity over WT GLA (SEQ ID NO: 5)),+ (+ = 0.5 to 1.5 relative activity over WT GLA (SEQ ID NO: 5))
B2,+ (+ = 0.5 to 1.5 relative activity over WT GLA (SEQ ID NO: 5)),+ (+ = 0.5 to 1.5 relative activity over WT GLA (SEQ ID NO: 5)),++ (++ = >1.5 to 2.5 relative activity over WT GLA (SEQ ID NO: 5))
B3,++ (++ = >1.5 to 2.5 relative activity over WT GLA (SEQ ID NO: 5)),++ (++ = >1.5 to 2.5 relative activity over WT GLA (SEQ ID NO: 5)),+ (+ = 0.5 to 1.5 relative activity over WT GLA (SEQ ID NO: 5))
B4,+ (+ = 0.5 to 1.5 relative activity over WT GLA (SEQ ID NO: 5)),++ (++ = >1.5 to 2.5 relative activity over WT GLA (SEQ ID NO: 5)),++ (++ = >1.5 to 2.5 relative activity over WT GLA (SEQ ID NO: 5))
B5,+ (+ = 0.5 to 1.5 relative activity over WT GLA (SEQ ID NO: 5)),+ (+ = 0.5 to 1.5 relative activity over WT GLA (SEQ ID NO: 5)),+ (+ = 0.5 to 1.5 relative activity over WT GLA (SEQ ID NO: 5))
B6,+ (+ = 0.5 to 1.5 relative activity over WT GLA (SEQ ID NO: 5)),+ (+ = 0.5 to 1.5 relative activity over WT GLA (SEQ ID NO: 5)),+ (+ = 0.5 to 1.5 relative activity over WT GLA (SEQ ID NO: 5))
B7,++ (++ = >1.5 to 2.5 relative activity over WT GLA (SEQ ID NO: 5)),++ (++ = >1.5 to 2.5 relative activity over WT GLA (SEQ ID NO: 5)),++ (++ = >1.5 to 2.5 relative activity over WT GLA (SEQ ID NO: 5))
B8,++ (++ = >1.5 to 2.5 relative activity over WT GLA (SEQ ID NO: 5)),++ (++ = >1.5 to 2.5 relative activity over WT GLA (SEQ ID NO: 5)),+++ (+++ = >2.5 relative activity over WT GLA (SEQ ID NO: 5))
B9,+ (+ = 0.5 to 1.5 relative activity over WT GLA (SEQ ID NO: 5)),+ (+ = 0.5 to 1.5 relative activity over WT GLA (SEQ ID NO: 5)),+ (+ = 0.5 to 1.5 relative activity over WT GLA (SEQ ID NO: 5))
B10,+ (+ = 0.5 to 1.5 relative activity over WT GLA (SEQ ID NO: 5)),+ (+ = 0.5 to 1.5 relative activity over WT GLA (SEQ ID NO: 5)),+ (+ = 0.5 to 1.5 relative activity over WT GLA (SEQ ID NO: 5))
B11,+ (+ = 0.5 to 1.5 relative activity over WT GLA (SEQ ID NO: 5)),+ (+ = 0.5 to 1.5 relative activity over WT GLA (SEQ ID NO: 5)),+ (+ = 0.5 to 1.5 relative activity over WT GLA (SEQ ID NO: 5))
B12,+ (+ = 0.5 to 1.5 relative activity over WT GLA (SEQ ID NO: 5)),+ (+ = 0.5 to 1.5 relative activity over WT GLA (SEQ ID NO: 5)),+ (+ = 0.5 to 1.5 relative activity over WT GLA (SEQ ID NO: 5))
B13,+ (+ = 0.5 to 1.5 relative activity over WT GLA (SEQ ID NO: 5)),++ (++ = >1.5 to 2.5 relative activity over WT GLA (SEQ ID NO: 5)),++ (++ = >1.5 to 2.5 relative activity over WT GLA (SEQ ID NO: 5))
B14,++ (++ = >1.5 to 2.5 relative activity over WT GLA (SEQ ID NO: 5)),++ (++ = >1.5 to 2.5 relative activity over WT GLA (SEQ ID NO: 5)),++ (++ = >1.5 to 2.5 relative activity over WT GLA (SEQ ID NO: 5))
B15,+ (+ = 0.5 to 1.5 relative activity over WT GLA (SEQ ID NO: 5)),+ (+ = 0.5 to 1.5 relative activity over WT GLA (SEQ ID NO: 5)),+ (+ = 0.5 to 1.5 relative activity over WT GLA (SEQ ID NO: 5))
B16,+ (+ = 0.5 to 1.5 relative activity over WT GLA (SEQ ID NO: 5)),+ (+ = 0.5 to 1.5 relative activity over WT GLA (SEQ ID NO: 5)),+ (+ = 0.5 to 1.5 relative activity over WT GLA (SEQ ID NO: 5))

# Reference: patent publication US11278600B2, “Human alpha-galactosidase variants” (Codexis, Inc., priority 2014, dated 2022)
